Experimental data reported in the supplement of paper PMC10567573.

B1: TMEM40 (parent)
chain: YGETDFHKQDGKAGLFSQEQYERN
B2: SPSB1 (parent)
chain: DMRDPTYRPLKQELQGLDYCKPTR

Variants of: B1
Test: protein stability index of a GFP-peptide fusion (GPS, HEK-293T) (PSI 1-6); higher = more stable
Settings: c terminus: a fixed tail appended
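Further: lentivirally expressed fusions sorted by FACS into six bins by GFP to DsRed ratio, PSI derived from sequencing read proportions per bin multiplied by bin number.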

For YGETDFHKQDGKAGLFSQEQYERI [N24I], which protein stability index is on record?
The protein stability index was 3.54.

Which protein stability index does the source give for YGETDFHKQDGKAGLFSQEQYERD [N24D] here?
The protein stability index was 4.4.

For YGETDFHKQDGKAGLFSQEQYERE [N24E], which protein stability index is on record?
The protein stability index was 4.54.

With YGETDFHKQDGKAGLFSQEQYERM [N24M] as the variant, how does the protein stability index read?
Its protein stability index is 3.89.

Which protein stability index does the source give for YGETDFHKQDGKAGLFSQEQYERC [N24C] here?
Its protein stability index is 3.98.

Which protein stability index does the source give for YGETDFHKQDGKAGLFSQEQYERW [N24W] here?
Its protein stability index is 3.99.

For YGETDFHKQDGKAGLFSQEQYERQ [N24Q], which protein stability index is on record?
The protein stability index was 4.09.

For YGETDFHKQDGKAGLFSQEQYERY [N24Y], which protein stability index is on record?
The protein stability index was 3.85.

Which protein stability index does the source give for YGETDFHKQDGKAGLFSQEQYERA [N24A] here?
The protein stability index was 3.63.

With YGETDFHKQDGKAGLFSQEQYERL [N24L] as the variant, how does the protein stability index read?
The protein stability index was 4.16.

For YGETDFHKQDGKAGLFSQEQYERT [N24T], which protein stability index is on record?
Its protein stability index is 3.89.

With YGETDFHKQDGKAGLFSQEQYERF [N24F] as the variant, how does the protein stability index read?
Its protein stability index is 3.8.

Which protein stability index does the source give for YGETDFHKQDGKAGLFSQEQYERH [N24H] here?
Its protein stability index is 3.88.

With YGETDFHKQDGKAGLFSQEQYERV [N24V] as the variant, how does the protein stability index read?
Its protein stability index is 3.67.

Variants of: B2
Test: as above
Settings: c terminus: a fixed tail appended

With DMRDTTYRPLKQELQGLDYCKPTR [P5T] as the variant, how does the protein stability index read?
Its protein stability index is 3.17.

For DMRDNTYRPLKQELQGLDYCKPTR [P5N], which protein stability index is on record?
The protein stability index was 2.93.

Which protein stability index does the source give for DMRDWTYRPLKQELQGLDYCKPTR [P5W] here?
The protein stability index was 2.76.

Which protein stability index does the source give for DMRDPTYRPLKQELQGLQYCKPTR [D18Q] here?
The protein stability index was 3.83.

For DMRDPTYRPLKQELQGLGYCKPTR [D18G], which protein stability index is on record?
The protein stability index was 3.81.

With DMRDPTYRPLKQELQGLCYCKPTR [D18C] as the variant, how does the protein stability index read?
The protein stability index was 3.08.

With DMRDPTYRPLKQELQGLYYCKPTR [D18Y] as the variant, how does the protein stability index read?
The protein stability index was 2.99.

For DMRDPTYRPLVQELQGLDYCKPTR [K11V], which protein stability index is on record?
The protein stability index was 3.45.

Which protein stability index does the source give for DMRDPTYRPLWQELQGLDYCKPTR [K11W] here?
Its protein stability index is 2.5.

With DMRDPTYRPLMQELQGLDYCKPTR [K11M] as the variant, how does the protein stability index read?
Its protein stability index is 3.71.

With DMRDPTYRPLSQELQGLDYCKPTR [K11S] as the variant, how does the protein stability index read?
Its protein stability index is 3.76.

Which protein stability index does the source give for DMRDPTYRPLKQELQGMDYCKPTR [L17M] here?
Its protein stability index is 4.12.

For DMRDPTYRPLKQELQGADYCKPTR [L17A], which protein stability index is on record?
The protein stability index was 3.82.

For DMRDPTYRPLKQELQGHDYCKPTR [L17H], which protein stability index is on record?
Its protein stability index is 4.39.

For DMRDPTYRPLKQERQGLDYCKPTR [L14R], which protein stability index is on record?
The protein stability index was 3.42.

For DMRDPTYRPLKQEKQGLDYCKPTR [L14K], which protein stability index is on record?
Its protein stability index is 4.5.

For DMRDPTYRPLKQEGQGLDYCKPTR [L14G], which protein stability index is on record?
Its protein stability index is 4.04.

With DMRDPTYRPLKQEIQGLDYCKPTR [L14I] as the variant, how does the protein stability index read?
The protein stability index was 3.35.

For DMRDPTYRPLKQETQGLDYCKPTR [L14T], which protein stability index is on record?
Its protein stability index is 4.28.

For DMSDPTYRPLKQELQGLDYCKPTR [R3S], which protein stability index is on record?
The protein stability index was 3.89.

With DMPDPTYRPLKQELQGLDYCKPTR [R3P] as the variant, how does the protein stability index read?
The protein stability index was 3.36.

For DMFDPTYRPLKQELQGLDYCKPTR [R3F], which protein stability index is on record?
The protein stability index was 2.92.

Which protein stability index does the source give for DMTDPTYRPLKQELQGLDYCKPTR [R3T] here?
The protein stability index was 3.42.

With DMRDPTYRPLKQELQGLDYCKPKR [T23K] as the variant, how does the protein stability index read?
The protein stability index was 3.9.

For DMRDPTYRPLKQELQGLDYCKPQR [T23Q], which protein stability index is on record?
The protein stability index was 3.47.

Which protein stability index does the source give for DMRDPTYRPLKQELQGLDYCKPMR [T23M] here?
The protein stability index was 2.87.

For DMRDPTYRPLKQELQGLDYCKPDR [T23D], which protein stability index is on record?
The protein stability index was 2.87.

Which protein stability index does the source give for DMRDPTYRPLKQELKGLDYCKPTR [Q15K] here?
Its protein stability index is 3.59.

Which protein stability index does the source give for DMRDPTYRPLKQELYGLDYCKPTR [Q15Y] here?
The protein stability index was 3.4.

Which protein stability index does the source give for DMRDPTYRPLKQELHGLDYCKPTR [Q15H] here?
Its protein stability index is 2.7.

With DMRDPTYRPLKQELGGLDYCKPTR [Q15G] as the variant, how does the protein stability index read?
The protein stability index was 2.25.

Which protein stability index does the source give for DMRDPTYRPLKQELQFLDYCKPTR [G16F] here?
The protein stability index was 2.24.

With DMRDPTYRPLKQELQDLDYCKPTR [G16D] as the variant, how does the protein stability index read?
Its protein stability index is 3.34.

For DMRDPTYRPLKQELQCLDYCKPTR [G16C], which protein stability index is on record?
Its protein stability index is 3.17.

For DMRDPTYRPLKQELQILDYCKPTR [G16I], which protein stability index is on record?
The protein stability index was 2.17.

For DMRDPTYRPLKQELQMLDYCKPTR [G16M], which protein stability index is on record?
The protein stability index was 3.35.

For DMRDPTDRPLKQELQGLDYCKPTR [Y7D], which protein stability index is on record?
Its protein stability index is 3.61.

Which protein stability index does the source give for DMRDPTSRPLKQELQGLDYCKPTR [Y7S] here?
Its protein stability index is 2.93.

With DMRDPTRRPLKQELQGLDYCKPTR [Y7R] as the variant, how does the protein stability index read?
Its protein stability index is 2.51.

With DMRDPTNRPLKQELQGLDYCKPTR [Y7N] as the variant, how does the protein stability index read?
Its protein stability index is 3.34.

For DMRDPTYRPLKQELQGLDYCKETR [P22E], which protein stability index is on record?
The protein stability index was 4.79.

Which protein stability index does the source give for DMRDPTYRPLKQELQGLDYCKHTR [P22H] here?
Its protein stability index is 4.15.

Which protein stability index does the source give for DMRDPTYRPLKQELQGLDYCKGTR [P22G] here?
Its protein stability index is 4.1.

With DMRHPTYRPLKQELQGLDYCKPTR [D4H] as the variant, how does the protein stability index read?
The protein stability index was 2.7.

With DMRDPTYLPLKQELQGLDYCKPTR [R8L] as the variant, how does the protein stability index read?
Its protein stability index is 3.23.

For DMRDPTYRTLKQELQGLDYCKPTR [P9T], which protein stability index is on record?
Its protein stability index is 2.64.

With DMRDPTYRKLKQELQGLDYCKPTR [P9K] as the variant, how does the protein stability index read?
Its protein stability index is 2.94.

For DMRDPTYRELKQELQGLDYCKPTR [P9E], which protein stability index is on record?
The protein stability index was 3.67.

Which protein stability index does the source give for DMRDPTYRPLKQELQGLDYCKPTS [R24S] here?
The protein stability index was 3.68.

Which protein stability index does the source give for DMRDPTYRPLKQELQGLDYCKPTP [R24P] here?
The protein stability index was 4.29.

Which protein stability index does the source give for DMRDPTYRPLKQGLQGLDYCKPTR [E13G] here?
The protein stability index was 3.59.

With DMRDPTYRPLKQNLQGLDYCKPTR [E13N] as the variant, how does the protein stability index read?
Its protein stability index is 3.03.

For DMRDPTYRPLKQILQGLDYCKPTR [E13I], which protein stability index is on record?
The protein stability index was 2.62.

Which protein stability index does the source give for NMRDPTYRPLKQELQGLDYCKPTR [D1N] here?
Its protein stability index is 3.12.

With CMRDPTYRPLKQELQGLDYCKPTR [D1C] as the variant, how does the protein stability index read?
The protein stability index was 3.94.

With IMRDPTYRPLKQELQGLDYCKPTR [D1I] as the variant, how does the protein stability index read?
Its protein stability index is 2.57.

With GMRDPTYRPLKQELQGLDYCKPTR [D1G] as the variant, how does the protein stability index read?
Its protein stability index is 2.65.

With DMRDPTYRPRKQELQGLDYCKPTR [L10R] as the variant, how does the protein stability index read?
Its protein stability index is 2.93.

With DMRDPTYRPYKQELQGLDYCKPTR [L10Y] as the variant, how does the protein stability index read?
Its protein stability index is 2.81.

Which protein stability index does the source give for DMRDPTYRPKKQELQGLDYCKPTR [L10K] here?
The protein stability index was 3.22.

With DMRDPTYRPEKQELQGLDYCKPTR [L10E] as the variant, how does the protein stability index read?
The protein stability index was 4.03.

With DMRDPTYRPLKQELQGLDYNKPTR [C20N] as the variant, how does the protein stability index read?
Its protein stability index is 4.05.

For DMRDPTYRPLKQELQGLDYIKPTR [C20I], which protein stability index is on record?
The protein stability index was 2.77.

For DMRDPTYRPLKQELQGLDYFKPTR [C20F], which protein stability index is on record?
The protein stability index was 3.31.

For DMRDPTYRPLKQELQGLDYKKPTR [C20K], which protein stability index is on record?
Its protein stability index is 4.6.

Which protein stability index does the source give for DMRDPTYRPLKQELQGLDYSKPTR [C20S] here?
The protein stability index was 4.11.

Which protein stability index does the source give for DMRDPTYRPLKQELQGLDYDKPTR [C20D] here?
The protein stability index was 4.05.

For DKRDPTYRPLKQELQGLDYCKPTR [M2K], which protein stability index is on record?
The protein stability index was 3.13.

With DQRDPTYRPLKQELQGLDYCKPTR [M2Q] as the variant, how does the protein stability index read?
Its protein stability index is 3.26.

With DHRDPTYRPLKQELQGLDYCKPTR [M2H] as the variant, how does the protein stability index read?
Its protein stability index is 3.64.

For DVRDPTYRPLKQELQGLDYCKPTR [M2V], which protein stability index is on record?
Its protein stability index is 3.02.

For DFRDPTYRPLKQELQGLDYCKPTR [M2F], which protein stability index is on record?
The protein stability index was 3.42.

Which protein stability index does the source give for DMRDPSYRPLKQELQGLDYCKPTR [T6S] here?
Its protein stability index is 3.59.

Which protein stability index does the source give for DMRDPYYRPLKQELQGLDYCKPTR [T6Y] here?
The protein stability index was 2.98.

Which protein stability index does the source give for DMRDPTYRPLKQELQGLDYCLPTR [K21L] here?
Its protein stability index is 3.38.

For DMRDPTYRPLKQELQGLDYCHPTR [K21H], which protein stability index is on record?
The protein stability index was 2.46.

For DMRDPTYRPLKQELQGLDYCEPTR [K21E], which protein stability index is on record?
The protein stability index was 2.76.

For DMRDPTYRPLKIELQGLDYCKPTR [Q12I], which protein stability index is on record?
The protein stability index was 2.35.

Which protein stability index does the source give for DMRDPTYRPLKQELQGLDMCKPTR [Y19M] here?
Its protein stability index is 4.

With DMRDPTYRPLKQELQGLDGCKPTR [Y19G] as the variant, how does the protein stability index read?
The protein stability index was 4.73.
